Numbering of substitutions follows the chain as printed.

B1: C326 (ligand)
chain: MAAEPVEDNSINFVAMKFIDNTLYFIAEDDENLESDRGRRVANPLGLAGSGYFGKLKSKLSIIRNLNDQVLFIDQGNRPLFEDMTDSDARDNAPRTIFIISMYADSQPRGMAVAISVKCEKISTLSAENKIISFKEMNPPDNIKDTKSDIIFFQRSVPGHDNKMQFESSSYEGYFLAAEKERDLFKLILKKEDELGDRSIMFTVQNED
B2: C326 + MMP9 (ligand)
chain: LAGSGYFGKLKSKLSIIRNLNDQVLFIDQGNRPLFEDMTDSDARDNAPRTIFIISMYADSQPRGMAVAISVKCEKISTLSAENKIISFKEMNPPDNIKDTKSDIIFFQRSVPGHDNKMQFESSSYEGYFLAAEKERDLFKLILKKEDELGDRSIMFTVQNED
B3: C323 (ligand)
chain: MAAEPVEDNSINFVAMKFIDNTLYFIAEDDENLESDRGRRVANLVGGSGYFGKLKSKLSIIRNLNDQVLFIDQGNRPLFEDMTDSDARDNAPRTIFIISMYADSQPRGMAVAISVKCEKISTLSAENKIISFKEMNPPDNIKDTKSDIIFFQRSVPGHDNKMQFESSSYEGYFLAAEKERDLFKLILKKEDELGDRSIMFTVQNED
B4: C325 (ligand)
chain: B3 chain with V41P, A42L, N43G, V45A
B5: C316 + Matriptase (ligand)
chain: MAAEPVEDNSINFVAMKFIDNTLYFIAEDDENLESDSGRVANLVGYFGKLKSKLSIIRNLNDQVLFIDQGNRPLFEDMTDSDARDNAPRTIFIISMYADSQPRGMAVAISVKCEKISTLSAENKIISFKEMNPPDNIKDTKSDIIFFQRSVPGHDNKMQFESSSYEGYFLAAEKERDLFKLILKKEDELGDRSIMFTVQNED
B6: C325 + MMP9 (ligand)
chain: LAGGSGYFGKLKSKLSIIRNLNDQVLFIDQGNRPLFEDMTDSDARDNAPRTIFIISMYADSQPRGMAVAISVKCEKISTLSAENKIISFKEMNPPDNIKDTKSDIIFFQRSVPGHDNKMQFESSSYEGYFLAAEKERDLFKLILKKEDELGDRSIMFTVQNED
B7: C324 + MMP9 (ligand)
chain: YFGKLKSKLSIIRNLNDQVLFIDQGNRPLFEDMTDSDARDNAPRTIFIISMYADSQPRGMAVAISVKCEKISTLSAENKIISFKEMNPPDNIKDTKSDIIFFQRSVPGHDNKMQFESSSYEGYFLAAEKERDLFKLILKKEDELGDRSIMFTVQNED
B8: C318 + Matriptase (ligand)
chain: MAAEPVEDNSINFVAMKFIDNTLYFIAEDDENLESDSGRVANYFGKLKSKLSIIRNLNDQVLFIDQGNRPLFEDMTDSDARDNAPRTIFIISMYADSQPRGMAVAISVKCEKISTLSAENKIISFKEMNPPDNIKDTKSDIIFFQRSVPGHDNKMQFESSSYEGYFLAAEKERDLFKLILKKEDELGDRSIMFTVQNED

The target of this assay is His-tagged human IL-18BP (human) (UniProt O95998). Nature of the assay: AlphaLISA of free IL-18BP.
Sequence of His-tagged human IL-18BP (human) (O95998 31-194): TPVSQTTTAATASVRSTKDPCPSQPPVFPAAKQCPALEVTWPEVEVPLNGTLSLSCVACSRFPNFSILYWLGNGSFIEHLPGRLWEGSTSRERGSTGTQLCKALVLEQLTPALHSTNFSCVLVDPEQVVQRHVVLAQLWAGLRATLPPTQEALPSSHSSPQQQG
In general, Kd refers to the equilibrium constant for the complex coming apart. High values mean lower affinity, low ones higher affinity. With B1, the Kd was found to be 2100 nM.

Turning to B2, the dissociation constant Kd stood at 139 nM.

As to B3, the Kd stood at 8550 nM.

Molecule B4 showed a dissociation constant (Kd) of 1880 nM.

In turn, B5 yielded an equilibrium dissociation constant (Kd) of 723 nM. This Kd is about 2.6-fold lower than that of the molecule before.

B6 had a Kd of 158 nM. This Kd lies about 4.6-fold lower than the previous one.

B7 displayed an equilibrium dissociation constant (Kd) of 36.5 nM. Compared with the last molecule, the Kd is about 4.3-fold lower.

As to B8, the dissociation constant Kd was determined as 586 nM.
